Reference: article PMC9678342

Experiments:
[1] = target: HSV-1 glycoprotein D, C-terminal truncated mutant gD285 (aa 1-285) (herpes simplex virus type 1 (HSV-1)); experiment: AUC; sedimentation velocity, gD alone at 5, 10 and 20 uM in PBS pH 7.8, 20 C, 40k rpm, absorbance optics, c(s) distributions in SedFit; monomer and dimer species, said not to be in a monomer-dimer equilibrium
[2] = target: HSV-1 glycoprotein D, C-terminal truncated mutant gD306 (aa 1-306) (herpes simplex virus type 1 (HSV-1)); experiment: as above
HVEM (Homo sapiens) = HVEM (Homo sapiens) (UniProt Q92956); details: cited from earlier work
UniProt Q92956, sequence (Q92956 39-283): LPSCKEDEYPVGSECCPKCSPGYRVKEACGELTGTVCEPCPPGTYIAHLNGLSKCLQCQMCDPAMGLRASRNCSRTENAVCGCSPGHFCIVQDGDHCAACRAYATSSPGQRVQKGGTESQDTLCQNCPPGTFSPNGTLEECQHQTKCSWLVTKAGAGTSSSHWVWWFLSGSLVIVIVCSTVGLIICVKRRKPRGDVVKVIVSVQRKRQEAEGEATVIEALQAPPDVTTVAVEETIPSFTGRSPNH

Substance “HSV-1 glycoprotein D, C-terminal truncated mutant gD285 (aa 1-285) (domain or fragment)” has a stoichiometry N [1] of 2.
With “HSV-1 glycoprotein D, C-terminal truncated mutant gD306 (aa 1-306) (domain or fragment)” the stoichiometry N [2] was 2.
In the case of “glycoprotein D (gD285) gD285 (from UniProt Q69091)”, the Kd (HVEM (Homo sapiens)) is listed as 37 nM.
